Assays:
Assay in all cases: holdup assay
Design in all cases: key: below the threshold = too weak to quantify, mostly under pKd 3.1 to 4
PTPN4, P29074 = molecular target: T1, PTPN4, P29074
T1 sequence (P29074 512-599, limits assumed, looked up): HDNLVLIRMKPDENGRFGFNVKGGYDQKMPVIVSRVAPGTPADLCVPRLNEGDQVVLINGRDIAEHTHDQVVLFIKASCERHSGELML

MPDZ_3, O75970 = molecular target: T2, MPDZ_3, O75970
T2 sequence (O75970 372-473, limits assumed, looked up): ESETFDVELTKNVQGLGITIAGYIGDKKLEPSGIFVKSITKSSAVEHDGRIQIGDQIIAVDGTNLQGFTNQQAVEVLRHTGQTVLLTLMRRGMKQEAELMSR

IL16_2, Q14005 = molecular target: IL16_2, Q14005
Chain of IL16_2, Q14005 (Q14005 350-450): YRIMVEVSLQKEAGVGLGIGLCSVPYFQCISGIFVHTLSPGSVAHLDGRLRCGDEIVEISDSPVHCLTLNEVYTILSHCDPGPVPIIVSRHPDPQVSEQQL

PDZD8, Q8NEN9 = molecular target: T3, PDZD8, Q8NEN9
T3 sequence (Q8NEN9 361-459, limits assumed, looked up): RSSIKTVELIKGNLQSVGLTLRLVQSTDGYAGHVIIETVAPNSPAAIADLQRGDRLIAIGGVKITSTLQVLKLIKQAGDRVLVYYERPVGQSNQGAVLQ

CARD14, Q9BXL6 = details: plain residues with an end cap or a label only (N-terminal biotin on a linker: (peg)3)
Chain of CARD14, Q9BXL6 (Q9BXL6 558-663): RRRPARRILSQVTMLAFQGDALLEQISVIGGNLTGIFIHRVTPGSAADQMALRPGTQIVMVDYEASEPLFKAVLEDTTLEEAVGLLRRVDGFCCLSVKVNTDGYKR

PDZD11, Q5EBL8 = molecular target: T4, PDZD11, Q5EBL8
T4 sequence (Q5EBL8 42-139, limits assumed, looked up): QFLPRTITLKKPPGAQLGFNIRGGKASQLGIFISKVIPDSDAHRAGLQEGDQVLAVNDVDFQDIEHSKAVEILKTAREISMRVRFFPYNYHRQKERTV

GIPC1, O14908 = molecular target: T5, GIPC1, O14908; details: plain residues with an end cap or a label only (N-terminal biotin on a linker: (peg)3)
T5 sequence (O14908 128-223, limits assumed, looked up): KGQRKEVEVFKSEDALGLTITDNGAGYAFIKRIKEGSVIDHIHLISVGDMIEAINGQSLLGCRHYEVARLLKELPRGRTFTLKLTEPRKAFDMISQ

MAST3, O60307 = molecular target: MAST3, O60307
Chain of MAST3, O60307 (O60307 945-1048): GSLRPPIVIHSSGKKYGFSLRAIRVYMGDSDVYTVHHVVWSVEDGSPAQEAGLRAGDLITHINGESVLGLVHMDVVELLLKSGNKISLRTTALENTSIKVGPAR

SHANK2, Q9UPX8 = molecular target: T6, SHANK2, Q9UPX8
T6 sequence (Q9UPX8 621-730, limits assumed, looked up): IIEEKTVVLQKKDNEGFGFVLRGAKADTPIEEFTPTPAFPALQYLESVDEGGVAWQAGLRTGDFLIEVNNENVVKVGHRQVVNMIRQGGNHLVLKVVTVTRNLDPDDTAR

TJP1_1, Q07157 = molecular target: TJP1_1, Q07157
Chain of TJP1_1, Q07157 (Q07157 18-120): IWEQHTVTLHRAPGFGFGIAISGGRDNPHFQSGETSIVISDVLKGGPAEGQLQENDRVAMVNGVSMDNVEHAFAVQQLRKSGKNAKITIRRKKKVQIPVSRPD

PDZD4, Q76G19 = molecular target: T7, PDZD4, Q76G19
T7 sequence (Q76G19 125-224, limits assumed, looked up): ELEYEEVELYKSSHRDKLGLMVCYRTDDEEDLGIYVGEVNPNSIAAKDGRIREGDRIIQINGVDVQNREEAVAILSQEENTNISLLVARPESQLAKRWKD

PDLIM3, Q53GG5 = molecular target: T8, PDLIM3, Q53GG5
T8 sequence (Q53GG5 1-94, limits assumed, looked up): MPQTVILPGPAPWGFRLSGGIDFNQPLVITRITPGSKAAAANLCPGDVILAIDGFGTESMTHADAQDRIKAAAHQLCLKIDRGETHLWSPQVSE

MPDZ_6, O75970 = molecular target: T9, MPDZ_6, O75970
T9 sequence (O75970 1003-1099, limits assumed, looked up): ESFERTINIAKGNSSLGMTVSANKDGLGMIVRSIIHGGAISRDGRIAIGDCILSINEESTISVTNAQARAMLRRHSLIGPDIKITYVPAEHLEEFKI

NHERF4_3, Q86UT5 = molecular target: NHERF4_3, Q86UT5
Chain of NHERF4_3, Q86UT5 (Q86UT5 325-412): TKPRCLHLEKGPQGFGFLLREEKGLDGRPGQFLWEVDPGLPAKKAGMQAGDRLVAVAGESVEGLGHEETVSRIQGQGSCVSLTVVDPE

PDLIM4, P50479 = molecular target: PDLIM4, P50479
Chain of PDLIM4, P50479 (P50479 1-83): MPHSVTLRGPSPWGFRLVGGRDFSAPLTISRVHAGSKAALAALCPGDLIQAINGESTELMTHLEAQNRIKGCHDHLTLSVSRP

LNX1_4, Q8TBB1 = details: plain residues with an end cap or a label only (N-terminal biotin on a linker: (peg)3)
Chain of LNX1_4, Q8TBB1 (Q8TBB1 631-726): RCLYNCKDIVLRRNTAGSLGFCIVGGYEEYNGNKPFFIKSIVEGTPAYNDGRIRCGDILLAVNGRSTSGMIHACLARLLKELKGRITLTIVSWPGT

PDZRN3_2, Q9UPQ7 = molecular target: T10, PDZRN3_2, Q9UPQ7; details: plain residues with an end cap or a label only (N-terminal biotin on a linker: (peg)3)
T10 sequence (Q9UPQ7 414-513, limits assumed, looked up): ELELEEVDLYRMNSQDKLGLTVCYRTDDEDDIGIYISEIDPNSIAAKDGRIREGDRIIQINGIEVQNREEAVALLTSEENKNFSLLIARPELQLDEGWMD

SYNPO2L, Q9H987 = molecular target: T11, SYNPO2L, Q9H987
T11 sequence (Q9H987 1-98, limits assumed, looked up): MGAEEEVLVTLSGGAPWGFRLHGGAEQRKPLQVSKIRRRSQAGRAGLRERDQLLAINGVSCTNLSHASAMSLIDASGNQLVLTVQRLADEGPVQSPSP

PDZD7_1, Q9H5P4 = molecular target: T12, PDZD7_1, Q9H5P4
T12 sequence (Q9H5P4 81-178, limits assumed, looked up): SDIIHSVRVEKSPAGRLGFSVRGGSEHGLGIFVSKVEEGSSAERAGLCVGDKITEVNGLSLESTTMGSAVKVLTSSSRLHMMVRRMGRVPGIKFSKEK

MPDZ_7, O75970 = molecular target: T13, MPDZ_7, O75970
T13 sequence (O75970 1146-1253, limits assumed, looked up): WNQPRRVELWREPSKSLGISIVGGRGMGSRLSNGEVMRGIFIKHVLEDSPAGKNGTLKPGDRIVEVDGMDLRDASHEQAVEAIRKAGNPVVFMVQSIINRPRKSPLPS

PARD3B_2, Q8TEW8 = molecular target: PARD3B_2, Q8TEW8
Chain of PARD3B_2, Q8TEW8 (Q8TEW8 376-471): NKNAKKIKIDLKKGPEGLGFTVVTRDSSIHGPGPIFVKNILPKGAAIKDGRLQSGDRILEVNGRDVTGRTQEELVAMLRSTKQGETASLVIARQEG

PDZD2_4, O15018 = molecular target: T14, PDZD2_4, O15018
T14 sequence (O15018 723-823, limits assumed, looked up): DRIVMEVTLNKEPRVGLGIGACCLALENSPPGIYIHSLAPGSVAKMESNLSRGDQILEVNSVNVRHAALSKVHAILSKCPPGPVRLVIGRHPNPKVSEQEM

[1] = plain residues with an end cap or a label only (N-terminal biotin on a linker: (peg)3)
[2] = modified: phospho on T at position -2 from the C-terminal residue

| Binder | pKd (PTPN4, P29074; [1]) | pKd (MPDZ_3, O75970; [1]) | pKd (IL16_2, Q14005; [1]) | pKd (PDZD8, Q8NEN9; [1]) | pKd (CARD14, Q9BXL6) | pKd (PDZD11, Q5EBL8; [1]) | pKd (GIPC1, O14908) | pKd (MAST3, O60307; [1]) | pKd (SHANK2, Q9UPX8; [1]) | pKd (TJP1_1, Q07157; [1]) | pKd (PDZD4, Q76G19; [1]) | pKd (PDLIM3, Q53GG5; [1]) | pKd (MPDZ_6, O75970; [1]) | pKd (NHERF4_3, Q86UT5; [1]) | pKd (PDLIM4, P50479; [1]) | pKd (LNX1_4, Q8TBB1) | pKd (PDZRN3_2, Q9UPQ7) | pKd (SYNPO2L, Q9H987; [1]) | pKd (PDZD7_1, Q9H5P4; [1]) | pKd (MPDZ_7, O75970; [1]) | also measured |
| --- | --- | --- | --- | --- | --- | --- | --- | --- | --- | --- | --- | --- | --- | --- | --- | --- | --- | --- | --- | --- | --- |
| RYEDTTLVEDTVL [WNV-NS5, Q9Q6P4] | below the threshold | below the threshold | below the threshold | below the threshold | below the threshold | below the threshold | below the threshold | below the threshold | 4.59 | below the threshold | below the threshold | below the threshold | 3.94 | below the threshold | below the threshold | below the threshold | below the threshold | below the threshold | below the threshold | below the threshold | pKd (PARD3B_2, Q8TEW8; [1]): below the threshold; pKd (PDZD2_4, O15018; [1]): below the threshold |
| QQSMSSADSTQA [SARS-Cov2-N, P0DTC9] | below the threshold | below the threshold | below the threshold | below the threshold | below the threshold | below the threshold | 4.46 | below the threshold | below the threshold | below the threshold | below the threshold | below the threshold | below the threshold | below the threshold | below the threshold | below the threshold | below the threshold | below the threshold | below the threshold | below the threshold | pKd (PARD3B_2, Q8TEW8; [1]): below the threshold; pKd (PDZD2_4, O15018; [1]): below the threshold |
| RRRRSQSRESQC [HBV-HBc, P03193] | 4.94 | below the threshold | below the threshold | below the threshold | below the threshold | below the threshold | 5.58 | below the threshold | below the threshold | below the threshold | below the threshold | 4.1 | below the threshold | below the threshold | below the threshold | below the threshold | below the threshold | below the threshold | below the threshold | below the threshold | pKd (PARD3B_2, Q8TEW8; [1]): 3.85; pKd (PDZD2_4, O15018; [1]): below the threshold |
| SSRTRRETQL [HPV16-E6_-2P, P03126] |  |  |  |  |  |  |  |  |  |  |  |  |  |  |  |  |  |  |  |  | pKd (PTPN4, P29074; [2]): below the threshold; pKd (MPDZ_3, O75970; [2]): below the threshold; pKd (IL16_2, Q14005; [2]): below the threshold; pKd (PDZD8, Q8NEN9; [2]): below the threshold; pKd (PDZD11, Q5EBL8; [2]): below the threshold; pKd (MAST3, O60307; [2]): below the threshold; pKd (SHANK2, Q9UPX8; [2]): below the threshold; pKd (TJP1_1, Q07157; [2]): below the threshold; pKd (PDZD4, Q76G19; [2]): below the threshold; pKd (PDLIM3, Q53GG5; [2]): below the threshold; pKd (MPDZ_6, O75970; [2]): below the threshold; pKd (NHERF4_3, Q86UT5; [2]): below the threshold; pKd (PDLIM4, P50479; [2]): below the threshold; pKd (SYNPO2L, Q9H987; [2]): below the threshold; pKd (PDZD7_1, Q9H5P4; [2]): below the threshold; pKd (MPDZ_7, O75970; [2]): below the threshold; pKd (PARD3B_2, Q8TEW8; [2]): below the threshold; pKd (PDZD2_4, O15018; [2]): below the threshold |

— PMC9482650, “Quantitative fragmentomics allow affinity mapping of interactomes” (Nature Communications, 2022)
